Data reported in paper PMC5705077 (Biochemistry, 2017).

How the values were obtained:
MBP-Brh2^106–1075 [1] = target: T1, MBP-Brh2^106–1075 (Ustilago maydis, UniProt Q8NJ74 106-1075); test: pull-down
T1 sequence (looked up): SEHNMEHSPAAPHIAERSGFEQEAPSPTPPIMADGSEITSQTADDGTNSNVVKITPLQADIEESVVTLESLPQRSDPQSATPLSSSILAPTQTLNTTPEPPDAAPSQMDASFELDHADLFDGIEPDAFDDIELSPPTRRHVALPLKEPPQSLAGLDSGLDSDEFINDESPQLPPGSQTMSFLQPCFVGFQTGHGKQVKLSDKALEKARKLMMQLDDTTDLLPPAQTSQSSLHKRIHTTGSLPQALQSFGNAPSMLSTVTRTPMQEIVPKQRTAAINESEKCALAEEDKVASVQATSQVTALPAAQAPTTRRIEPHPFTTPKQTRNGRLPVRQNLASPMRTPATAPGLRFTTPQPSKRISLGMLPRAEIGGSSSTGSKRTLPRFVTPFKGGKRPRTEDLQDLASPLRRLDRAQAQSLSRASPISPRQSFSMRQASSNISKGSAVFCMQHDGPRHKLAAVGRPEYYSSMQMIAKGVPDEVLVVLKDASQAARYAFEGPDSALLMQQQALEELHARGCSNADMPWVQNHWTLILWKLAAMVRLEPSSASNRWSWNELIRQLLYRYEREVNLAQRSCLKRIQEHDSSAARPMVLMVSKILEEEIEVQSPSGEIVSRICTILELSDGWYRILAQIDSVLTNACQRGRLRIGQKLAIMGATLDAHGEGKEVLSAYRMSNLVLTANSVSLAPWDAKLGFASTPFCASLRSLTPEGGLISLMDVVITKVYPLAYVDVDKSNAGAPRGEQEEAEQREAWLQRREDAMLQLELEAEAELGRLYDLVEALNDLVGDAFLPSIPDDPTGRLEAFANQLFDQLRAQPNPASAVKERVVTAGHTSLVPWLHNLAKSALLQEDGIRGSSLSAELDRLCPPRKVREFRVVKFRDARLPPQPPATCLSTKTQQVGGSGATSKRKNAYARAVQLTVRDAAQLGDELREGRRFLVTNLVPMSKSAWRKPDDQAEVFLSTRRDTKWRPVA

MBP-Brh2^106–1075 [2] = target: T1, MBP-Brh2^106–1075; test: pull-down; remark: listed apart in the source

B1: Rad51 (natural protein, UniProt Q99133 1-339, looked up)
chain: MSQNAQDPAQIGEDDMGEAFGPLPVSKLEEFGISSSDCKKLAESGYNTVESIAFTPKKQLLLVKGVSEAKADKILAEAARLVPMGFTTATEFHARRNELISITTGSKNLDAILGGGMETGSITELYGEFRTGKSQLCHTLAVTCQLPVDMGGGEGKCLYIDTENTFRPTRLLAVAERFGLNGEEVLDNVAYARAYNADHQLQLLMQASAMMAESRFSLLIVDSLTSLYRTDFSGRGELSARQMHLAKFLRGLMRLADEFGVAVVITNQVVAQVDGATAFTADAKKPIGGNIVAHASTTRLSLRKGRGNQRICRIADSPCLPEADAVFAIGPEGIIDPVD
fold Rad51 associated relative to the Brh2/Dss1 heterodimer (MBP-Brh2^106–1075 [1]): ~10 fold
stoichiometry N (MBP-Brh2^106–1075 [2]): ~2.2 Rad51 per Brh2 (mol:mol)
